This note sets out measurements from US20200017549A1, “NOVEL a4B7 PEPTIDE ANTAGONISTS” (Protagonist Therapeutics, Inc., priority 2013, published 2020).

Bridge positions count the residues as written; N and C are the ends. Square brackets hold non-standard residues; d marks the D form. Ends that are not written are not given here. NMeR = CN[C@@H](CCCNC(=N)N)C(=O)O

The target in this test is T1, recombinant human integrin α4β7 (Homo sapiens, UniProt P13612+P26010).
T1 construct: purchased R&D Systems 5397-A30
T1 sequence (P13612 34-970 limits assumed): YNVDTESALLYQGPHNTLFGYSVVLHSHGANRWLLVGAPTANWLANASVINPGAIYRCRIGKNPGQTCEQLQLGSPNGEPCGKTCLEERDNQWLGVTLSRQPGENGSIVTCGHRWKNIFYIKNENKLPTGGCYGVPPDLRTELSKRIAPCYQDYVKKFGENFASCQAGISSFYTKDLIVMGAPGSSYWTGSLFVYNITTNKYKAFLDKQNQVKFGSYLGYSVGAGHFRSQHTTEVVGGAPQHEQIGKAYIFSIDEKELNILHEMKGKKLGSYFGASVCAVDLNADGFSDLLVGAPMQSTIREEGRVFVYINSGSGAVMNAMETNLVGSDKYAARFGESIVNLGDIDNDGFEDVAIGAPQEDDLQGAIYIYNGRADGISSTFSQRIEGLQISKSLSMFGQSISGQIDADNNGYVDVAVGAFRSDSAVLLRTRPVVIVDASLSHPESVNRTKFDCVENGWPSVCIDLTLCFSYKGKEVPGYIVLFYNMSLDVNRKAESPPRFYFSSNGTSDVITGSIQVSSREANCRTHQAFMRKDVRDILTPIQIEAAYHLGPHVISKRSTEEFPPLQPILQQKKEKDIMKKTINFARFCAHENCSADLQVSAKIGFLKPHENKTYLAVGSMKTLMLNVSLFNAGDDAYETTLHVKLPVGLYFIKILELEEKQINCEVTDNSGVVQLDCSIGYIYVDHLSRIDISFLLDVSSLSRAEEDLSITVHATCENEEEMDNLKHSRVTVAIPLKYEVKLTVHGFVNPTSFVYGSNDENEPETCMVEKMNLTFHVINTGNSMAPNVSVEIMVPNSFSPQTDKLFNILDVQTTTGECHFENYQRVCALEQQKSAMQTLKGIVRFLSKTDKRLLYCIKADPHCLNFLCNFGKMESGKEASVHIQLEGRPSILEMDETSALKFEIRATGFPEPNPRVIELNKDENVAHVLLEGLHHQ
T1 sequence (P26010 20-723 limits assumed): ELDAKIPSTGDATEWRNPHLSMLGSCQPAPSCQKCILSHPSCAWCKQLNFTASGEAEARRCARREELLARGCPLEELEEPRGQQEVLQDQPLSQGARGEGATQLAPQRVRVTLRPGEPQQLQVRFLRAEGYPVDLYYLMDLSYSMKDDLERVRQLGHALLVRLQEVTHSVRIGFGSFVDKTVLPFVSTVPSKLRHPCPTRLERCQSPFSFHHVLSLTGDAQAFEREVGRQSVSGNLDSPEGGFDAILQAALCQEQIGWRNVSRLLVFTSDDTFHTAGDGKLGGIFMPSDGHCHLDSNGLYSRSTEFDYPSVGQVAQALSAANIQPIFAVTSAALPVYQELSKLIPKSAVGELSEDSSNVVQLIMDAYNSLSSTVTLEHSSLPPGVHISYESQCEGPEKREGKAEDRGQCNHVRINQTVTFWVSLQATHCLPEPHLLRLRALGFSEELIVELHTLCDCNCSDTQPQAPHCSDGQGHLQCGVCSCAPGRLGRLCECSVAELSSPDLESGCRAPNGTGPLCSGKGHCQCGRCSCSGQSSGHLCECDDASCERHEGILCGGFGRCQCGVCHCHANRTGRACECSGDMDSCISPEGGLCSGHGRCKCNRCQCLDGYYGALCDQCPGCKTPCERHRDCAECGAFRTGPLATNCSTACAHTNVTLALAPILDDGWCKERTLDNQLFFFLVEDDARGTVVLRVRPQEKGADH
The experiment in a line: α4β7-MAdCAM Competition ELISA. The test is classed as binding. Conditions: N-Me-Arg substituted, as compared to SEQ ID NO:39. Here is the method: α4β7-MAdCAM Competition ELISA
A nickel coated plate (Pierce # 15442) was coated with recombinant human integrin α4β7 (R&D Systems #5397-A30) at 800 ng/well and incubated at room temperature with shaking for 1 hr. The solution was then remove by shaking and blocked with assay buffer (50 mM Tris-HCl pH7.6, 150 mM NaCl, 1 mM MnCl2, 0.05% Tween-20 and 0.5% BSA) at 250 ul/well. The plate was then incubated at room temperature for 1 hr. Each well was washed 3 times with wash buffer (50 mM Tris-HCl pH7.6, 100mM NaCl, 1 mM MnCl2, 0.05% Tween-20). To each well was added 25 ul of a serial dilution (3-fold dilutions in assay buffer) of peptides starting at 20 μM. 25 ul of recombinant human MAdCAM-1 (R&D Systems #6056-MC) was then added to each well at a fixed concentration 20 nM. The final starting peptide concentration was 10 μM, and the final MAdCAM-1 concentration was 10 nM. The plates were then incubated at room temperature for 1 hr to reach binding equilibrium. The wells were then washed three times with wash buffer. 50 ul of mouse anti-human IgG1-HRP (Invitrogen # A10648) diluted in 1:2000 in assay buffer was then added to each well. The wells were incubated at room temperature for 45 min with shaking. The wells were then washed 3 times with wash buffer. […] The reaction was stopped with 2N H2SO4 and absorbance was read at 450 nm.
A general note: An ELISA detects its analyte on a solid surface through an enzyme-linked reagent.

“SEQ ID NO: 48: integrin antagonist peptide substituted with N-Me-Arg (C[NMeR]SDTLCK; disulfide 1-7)”: the “potency for α4β7 in ELISA” value is “increased potency”.
